pKd: −log10 of the molar value. Where only a bound is given, the exact number is not on record here.

The assay concerns the target sACE2_(2).v2.4-IgG1 (human) (UniProt Q9BYF1). Nature of the assay: BLI.

Regarding “SARS-CoV-2 RBD-8h Y449K (from UniProt P0DTC2 333-529) (domain or fragment)”, the koff was 0.004 s⁻¹.

In turn, “SARS-CoV-2 RBD-8h N501Y (from UniProt P0DTC2 333-529) (domain or fragment)” showed a pKd of over 10.00.

The values above are taken from article PMC7781310.
